B1: His6-Fbp1 (enzyme, yeast (S. cerevisiae), UniProt P09201 1-348, looked up)
chain: MPTLVNGPRRDSTEGFDTDIITLPRFIIEHQKQFKNATGDFTLVLNALQFAFKFVSHTIRRAELVNLVGLAGASNFTGDQQKKLDVLGDEIFINAMRASGIIKVLVSEEQEDLIVFPTNTGSYAVCCDPIDGSSNLDAGVSVGTIASIFRLLPDSSGTINDVLRCGKEMVAACYAMYGSSTHLVLTLGDGVDGFTLDTNLGEFILTHPNLRIPPQKAIYSINEGNTLYWNETIRTFIEKVKQPQADNNNKPFSARYVGSMVADVHRTFLYGGLFAYPCDKKSPNGKLRLLYEAFPMAFLMEQAGGKAVNDRGERILDLVPSHIHDKSSIWLGSSGEIDKFLDHIGKSQ
notes: Fbp1, yeast gluconeogenic enzyme; the initiator methionine is present in the purified protein and is counted as residue 1; also called wild type His6-Fbp1; not shown: His6, N-terminal, kept

Assays:
Experiment in all cases: pull-down; His6-Fbp1 (wild type or mutant) pulled down on Talon metal affinity resin; reactions with two or all three proteins; 6 μg each of His6-Fbp1 (1.6 μM), Hsp70 (0.9 μM) and GST-Fes1 (1.09 μM), with or without ATP, ADP or AMP (2.5 mM); 50 mM Tris-HCl pH 7.5, 150 mM NaCl, 2% glycerol, 5 mM MgCl2; 30 min at 4°C; washed with 5 mM imidazole, eluted with 250 mM imidazole; stained SDS-PAGE gels, bands quantified …
Conditions in all cases: both partners purified
His6-Fbp1 = molecular target: B1
Ssa1 = molecular target: T1, Ssa1 (yeast (S. cerevisiae), UniProt P10591 1-642)
T1 construct: Ssa1, yeast cytosolic Hsp70; non-tagged; also called Hsp70; source: E. coli Rosetta 2(DE3), purified as described [51]

Ssa2 = molecular target: T2, Ssa2 (yeast (S. cerevisiae), UniProt P10592 1-639)
T2 construct: Ssa2, yeast cytosolic Hsp70; non-tagged; also called Hsp70; source: E. coli Rosetta 2(DE3), purified as described [51]
T2 sequence (P10592 whole entry): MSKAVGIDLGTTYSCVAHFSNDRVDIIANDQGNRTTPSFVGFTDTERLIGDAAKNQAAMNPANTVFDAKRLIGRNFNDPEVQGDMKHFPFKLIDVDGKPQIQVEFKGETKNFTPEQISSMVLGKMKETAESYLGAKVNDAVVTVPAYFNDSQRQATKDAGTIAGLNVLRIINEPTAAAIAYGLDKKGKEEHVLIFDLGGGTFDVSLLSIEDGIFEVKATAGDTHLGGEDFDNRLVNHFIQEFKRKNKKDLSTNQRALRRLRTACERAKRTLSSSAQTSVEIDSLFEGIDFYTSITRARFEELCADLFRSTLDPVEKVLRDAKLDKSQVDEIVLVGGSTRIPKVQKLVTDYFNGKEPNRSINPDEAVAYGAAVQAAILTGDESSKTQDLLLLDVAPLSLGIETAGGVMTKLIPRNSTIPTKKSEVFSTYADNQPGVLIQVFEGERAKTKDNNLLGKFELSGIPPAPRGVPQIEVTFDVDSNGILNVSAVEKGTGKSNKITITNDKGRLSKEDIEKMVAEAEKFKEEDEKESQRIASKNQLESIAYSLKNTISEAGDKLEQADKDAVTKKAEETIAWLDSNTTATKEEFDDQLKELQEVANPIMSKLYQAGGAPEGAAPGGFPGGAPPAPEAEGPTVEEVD

T1 sequence (P10591 whole entry): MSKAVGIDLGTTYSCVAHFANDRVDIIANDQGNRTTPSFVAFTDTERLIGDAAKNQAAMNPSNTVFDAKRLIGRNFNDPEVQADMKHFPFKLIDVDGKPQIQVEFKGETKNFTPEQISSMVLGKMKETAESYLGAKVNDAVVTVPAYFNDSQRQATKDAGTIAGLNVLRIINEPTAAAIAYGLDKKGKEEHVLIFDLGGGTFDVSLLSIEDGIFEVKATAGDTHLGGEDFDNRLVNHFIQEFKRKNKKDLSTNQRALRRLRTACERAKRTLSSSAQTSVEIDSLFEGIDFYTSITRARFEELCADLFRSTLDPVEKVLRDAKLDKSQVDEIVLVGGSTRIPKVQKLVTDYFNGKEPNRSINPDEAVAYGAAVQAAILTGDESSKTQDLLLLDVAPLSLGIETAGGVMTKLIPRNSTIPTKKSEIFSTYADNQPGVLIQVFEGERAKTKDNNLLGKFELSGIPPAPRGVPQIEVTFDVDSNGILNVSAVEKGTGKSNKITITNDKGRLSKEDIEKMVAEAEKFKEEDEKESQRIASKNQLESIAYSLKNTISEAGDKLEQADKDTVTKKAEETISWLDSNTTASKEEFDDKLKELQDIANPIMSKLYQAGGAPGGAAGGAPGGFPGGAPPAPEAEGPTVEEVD

binding result (Ssa1) | binding result (Ssa2) | Binder | other results
– | – | GST-Fes1^A79R,R195A (natural protein, yeast (S. cerevisiae), UniProt P38260 1-290, looked up, Fes1, yeast Hsp70 nucleotide exchange factor, double mutant A79R,R195A; also called Fes1RA; RA; source: E. coli expression, purified; not shown: GST, N-terminal, kept) MEKLLQWSIANSQGDKEAMARAGQPDPKLLQQLFGGGGPDDPTLMKESMAVIMNPEVDLETKLVAFDNFEMLIENLDNRNNIENLKLWEPLLDVLVQTKDEELRAAALSIIGTAVQNNLDSQNNFMKYDNGLRSLIEIASDKTKPLDVRTKAFYALSNLIRNHKDISEKFFKLNGLDCIAPVLSDNTAKPKLKMAAIALLTAYLSSVKIDENIISVLRKDGVIESTIECLSDESNLNIIDRVLSFLSHLISSGIKFNEQELHKLNEGYKHIEPLKDRLNEDDYLAVKYVL | ratio of amounts Fes1^A79R,R195A/Ssa1 pulled down by Fbp1, no nucleotide (His6-Fbp1): 1.7; ratio of amounts Fes1^A79R,R195A/Ssa1 pulled down by Fbp1, with ADP (His6-Fbp1): 5; ratio of amounts Fes1^A79R,R195A/Ssa1 pulled down by Fbp1, with AMP (His6-Fbp1): 3.3; ratio of amounts Fes1^A79R,R195A/Ssa1 pulled down by Fbp1, with ATP (His6-Fbp1): 6.4; ratio of amounts Fes1^A79R,R195A/Ssa2 pulled down by Fbp1, no nucleotide (His6-Fbp1): 2.4; ratio of amounts Fes1^A79R,R195A/Ssa2 pulled down by Fbp1, with ADP (His6-Fbp1): 4.5; ratio of amounts Fes1^A79R,R195A/Ssa2 pulled down by Fbp1, with AMP (His6-Fbp1): 1.9; ratio of amounts Fes1^A79R,R195A/Ssa2 pulled down by Fbp1, with ATP (His6-Fbp1): 4.3
binds | binds | His6-Fbp1ΔP2 (enzyme, yeast (S. cerevisiae), UniProt P09201 1-348, looked up, Fbp1, yeast gluconeogenic enzyme, proline 2 deleted; the initiator methionine is counted as residue 1; also called Fbp1P2Δ; source: E. coli expression, purified; not shown: His6, N-terminal, kept) MTLVNGPRRDSTEGFDTDIITLPRFIIEHQKQFKNATGDFTLVLNALQFAFKFVSHTIRRAELVNLVGLAGASNFTGDQQKKLDVLGDEIFINAMRASGIIKVLVSEEQEDLIVFPTNTGSYAVCCDPIDGSSNLDAGVSVGTIASIFRLLPDSSGTINDVLRCGKEMVAACYAMYGSSTHLVLTLGDGVDGFTLDTNLGEFILTHPNLRIPPQKAIYSINEGNTLYWNETIRTFIEKVKQPQADNNNKPFSARYVGSMVADVHRTFLYGGLFAYPCDKKSPNGKLRLLYEAFPMAFLMEQAGGKAVNDRGERILDLVPSHIHDKSSIWLGSSGEIDKFLDHIGKSQ | –
binds | binds | His6-Fbp1 P2A (enzyme, yeast (S. cerevisiae), UniProt P09201 1-348, looked up, Fbp1, yeast gluconeogenic enzyme, P2A; the initiator methionine is counted as residue 1; source: E. coli expression, purified; not shown: His6, N-terminal, kept) MATLVNGPRRDSTEGFDTDIITLPRFIIEHQKQFKNATGDFTLVLNALQFAFKFVSHTIRRAELVNLVGLAGASNFTGDQQKKLDVLGDEIFINAMRASGIIKVLVSEEQEDLIVFPTNTGSYAVCCDPIDGSSNLDAGVSVGTIASIFRLLPDSSGTINDVLRCGKEMVAACYAMYGSSTHLVLTLGDGVDGFTLDTNLGEFILTHPNLRIPPQKAIYSINEGNTLYWNETIRTFIEKVKQPQADNNNKPFSARYVGSMVADVHRTFLYGGLFAYPCDKKSPNGKLRLLYEAFPMAFLMEQAGGKAVNDRGERILDLVPSHIHDKSSIWLGSSGEIDKFLDHIGKSQ | –
binds | binds | B1 | –
binds | binds | His6-Fbp1^P2A,S12A,T13A (enzyme, yeast (S. cerevisiae), UniProt P09201 1-348, looked up, Fbp1, yeast gluconeogenic enzyme, P2A,S12A,T13A; the initiator methionine is counted as residue 1; source: E. coli expression, purified; not shown: His6, N-terminal, kept) MATLVNGPRRDAAEGFDTDIITLPRFIIEHQKQFKNATGDFTLVLNALQFAFKFVSHTIRRAELVNLVGLAGASNFTGDQQKKLDVLGDEIFINAMRASGIIKVLVSEEQEDLIVFPTNTGSYAVCCDPIDGSSNLDAGVSVGTIASIFRLLPDSSGTINDVLRCGKEMVAACYAMYGSSTHLVLTLGDGVDGFTLDTNLGEFILTHPNLRIPPQKAIYSINEGNTLYWNETIRTFIEKVKQPQADNNNKPFSARYVGSMVADVHRTFLYGGLFAYPCDKKSPNGKLRLLYEAFPMAFLMEQAGGKAVNDRGERILDLVPSHIHDKSSIWLGSSGEIDKFLDHIGKSQ | –
